Data taken from patent publication US10196445.

Experiments:
Assay in all cases: Fc receptor binding, method not stated
[1] = biological target: CD32-H131 (FcγRIIa) (human) (UniProt P12318)
CD64 (FcγRIa) (human) = CD64 (FcγRIa) (human) (UniProt P12314)
[2] = biological target: CD16-V158 (FcγRIIIa) (human) (UniProt P08637)
[3] = biological target: CD32-R131 (FcγRIIa) (human) (UniProt P12318)
CD32B (FcγRIIb) (human) = CD32B (FcγRIIb) (human) (UniProt P31994)
CD32B (FcγRIIb) (human), sequence (P31994 43-217 limits assumed): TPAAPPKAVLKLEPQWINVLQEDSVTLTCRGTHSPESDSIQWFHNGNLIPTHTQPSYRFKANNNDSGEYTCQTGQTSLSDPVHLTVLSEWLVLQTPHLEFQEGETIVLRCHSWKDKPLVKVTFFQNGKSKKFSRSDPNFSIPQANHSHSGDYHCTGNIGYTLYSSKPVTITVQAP

CD64 (FcγRIa) (human), sequence (P12314 16-288 limits assumed): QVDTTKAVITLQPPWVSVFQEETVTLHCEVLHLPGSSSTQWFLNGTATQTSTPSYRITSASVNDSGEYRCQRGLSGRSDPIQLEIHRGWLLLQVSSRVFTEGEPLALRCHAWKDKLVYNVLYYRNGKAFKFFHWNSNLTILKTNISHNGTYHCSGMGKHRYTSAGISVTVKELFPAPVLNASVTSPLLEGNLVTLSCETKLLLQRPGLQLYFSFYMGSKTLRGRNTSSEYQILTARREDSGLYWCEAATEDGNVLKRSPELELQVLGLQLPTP
CD32-R131 (FcγRIIa) (human), sequence (P12318 34-217 H167R limits assumed): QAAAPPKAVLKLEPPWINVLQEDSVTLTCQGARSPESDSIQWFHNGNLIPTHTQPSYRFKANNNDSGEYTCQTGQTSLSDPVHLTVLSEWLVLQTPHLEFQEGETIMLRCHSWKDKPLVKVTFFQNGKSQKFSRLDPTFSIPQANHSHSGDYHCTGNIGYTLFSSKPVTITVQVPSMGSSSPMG
CD16-V158 (FcγRIIIa) (human), sequence (P08637 17-208 F176V limits assumed): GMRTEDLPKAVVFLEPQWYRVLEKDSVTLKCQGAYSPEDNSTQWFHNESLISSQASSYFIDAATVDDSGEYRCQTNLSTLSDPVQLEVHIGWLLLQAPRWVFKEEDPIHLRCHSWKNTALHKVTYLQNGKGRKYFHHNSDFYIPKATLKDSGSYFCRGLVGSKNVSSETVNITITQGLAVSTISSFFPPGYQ
CD32-H131 (FcγRIIa) (human), sequence (P12318 34-217 limits assumed): as the sequence (P12318 34-217 H167R limits assumed) above, with R134H counted along it

| Kd [1] [nM] | Kd (CD64 (FcγRIa) (human)) [nM] | Kd [2] [nM] | Kd [3] [nM] | Kd (CD32B (FcγRIIb) (human)) [nM] | Substance |
| --- | --- | --- | --- | --- | --- |
| 530 | 0.2 | 97 | 960 |  | IgG1f antibody (human IgG1, 214R/356E/358M allotype) |
| 560 | 0.1 | 11 | 710 |  | non-fucosylated IgG1f antibody (human IgG1, 214R/356E/358M allotype) |
|  | 0.6 |  | 100 | 890 | GASDALIE modified IgG1f antibody (human IgG1, 214R/356E/358M allotype; G236A, S239D, A330L and I332E) |
